The source of these data is patent US20140377282A1 (APEXIGEN, published 2014).

Changes are numbered by the printed parent chain.

For assay [1], the target named is T1, recombinant human KDR (human, UniProt P35968 20-764, limits assumed).
T1 construct: also called VEGFR2
Briefly: inhibition of KDR binding to VEGF, ligand-receptor binding assay.

The target in assay [2] is T1, recombinant human KDR. Briefly: ELISA: antibody pre-incubated with 5 µg/ml recombinant human KDR, then transferred to a VEGF-coated plate; KDR bound to VEGF detected (OD405); blocked ligand VEGF. As to the method: (§1) An ELISA-based KDR-VEGF binding assay was developed and used to assess the potency of APX004 at blocking KDR binding to VEGF. A total of 2 μg/ml VEGF was coated on ELISA plates. APX004, the parental rabbit antibody R-36 or IgG1 isotype control antibody were pre-incubated with 5 μg/ml recombinant human KDR before being transferred to the VEGF-A coated ELISA plates. KDR bound to immobilized VEGF was detected by a mouse anti-KDR monoclonal antibody, followed by the addition of goat anti-mouse IgG conjugated with alkaline phosphatase (Fisher Scientific/Pierce Biotechnology, Rockford, Ill.). ELISA plates were developed with p-nitrophenyl phosphate substrate and absorbance at 405 nm was recorded. All experiments were performed in triplicate.
Background: ELISA stands for enzyme-linked immunosorbent assay.

Assay [3] has as its target T1, recombinant human KDR. Briefly: method not stated.
Another assay addresses T2, mouse KDR (mouse, UniProt P35918 20-762, limits assumed).
T2 construct: also called murine KDR
As to the kind of experiment: restated in the summary of the Examples.

In assay [4] the target is T3, rabbit Fc-fusion protein of mouse KDR (mouse; rabbit, UniProt P35918 20-762, limits assumed).
T3 construct: not shown: rabbit immunoglobulin Fc
T3 sequence (P35918 20-762 limits assumed): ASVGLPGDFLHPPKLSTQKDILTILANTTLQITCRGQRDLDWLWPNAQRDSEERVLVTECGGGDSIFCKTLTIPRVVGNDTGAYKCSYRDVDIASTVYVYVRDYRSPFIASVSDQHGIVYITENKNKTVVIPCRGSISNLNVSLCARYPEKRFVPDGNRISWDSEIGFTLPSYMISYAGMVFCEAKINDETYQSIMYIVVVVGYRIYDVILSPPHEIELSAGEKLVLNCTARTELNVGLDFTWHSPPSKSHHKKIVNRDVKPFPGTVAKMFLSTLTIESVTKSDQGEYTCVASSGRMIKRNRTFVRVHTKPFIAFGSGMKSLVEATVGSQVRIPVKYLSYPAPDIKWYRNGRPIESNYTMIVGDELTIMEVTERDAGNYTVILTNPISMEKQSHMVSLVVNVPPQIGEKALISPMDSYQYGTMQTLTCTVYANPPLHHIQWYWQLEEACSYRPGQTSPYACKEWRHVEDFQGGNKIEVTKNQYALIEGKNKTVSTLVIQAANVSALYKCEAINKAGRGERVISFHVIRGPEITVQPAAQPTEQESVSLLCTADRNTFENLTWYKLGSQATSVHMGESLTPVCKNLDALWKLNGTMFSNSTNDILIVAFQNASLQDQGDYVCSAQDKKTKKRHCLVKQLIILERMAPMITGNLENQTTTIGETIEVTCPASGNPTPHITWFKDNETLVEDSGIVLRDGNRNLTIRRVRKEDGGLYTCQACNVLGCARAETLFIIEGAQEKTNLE
As to the kind of experiment: direct ELISA: 1 µg/ml protein coated, 1 µg/ml APX004, goat anti-human HRP-conjugated IgG. The protocol: (§2) Binding selectivity of APX004 was assessed by direct ELISA to VEGFR family proteins. A total of 1 μg/ml of rabbit Fc-fusion protein of human KDR, mouse KDR, human VEGFR1, human VEGFR3, human OX40L and human VEGF were coated on ELISA plates followed by incubation with 1 μg/ml of APX004. Bound APX004 was detected using goat anti-human HRP-conjugated IgG.

Assay [5] has as its target T4, rabbit Fc-fusion protein of human VEGFR1 (human; rabbit, UniProt P17948 27-758, limits assumed).
T4 construct: also called Flt-1; not shown: rabbit immunoglobulin Fc
The description is as above. As to the method:
as §2

Assay [6] has as its target T5, rabbit Fc-fusion protein of human VEGFR3 (human; rabbit, UniProt P35916 25-775, limits assumed).
T5 construct: not shown: rabbit immunoglobulin Fc
T5 sequence (looked up): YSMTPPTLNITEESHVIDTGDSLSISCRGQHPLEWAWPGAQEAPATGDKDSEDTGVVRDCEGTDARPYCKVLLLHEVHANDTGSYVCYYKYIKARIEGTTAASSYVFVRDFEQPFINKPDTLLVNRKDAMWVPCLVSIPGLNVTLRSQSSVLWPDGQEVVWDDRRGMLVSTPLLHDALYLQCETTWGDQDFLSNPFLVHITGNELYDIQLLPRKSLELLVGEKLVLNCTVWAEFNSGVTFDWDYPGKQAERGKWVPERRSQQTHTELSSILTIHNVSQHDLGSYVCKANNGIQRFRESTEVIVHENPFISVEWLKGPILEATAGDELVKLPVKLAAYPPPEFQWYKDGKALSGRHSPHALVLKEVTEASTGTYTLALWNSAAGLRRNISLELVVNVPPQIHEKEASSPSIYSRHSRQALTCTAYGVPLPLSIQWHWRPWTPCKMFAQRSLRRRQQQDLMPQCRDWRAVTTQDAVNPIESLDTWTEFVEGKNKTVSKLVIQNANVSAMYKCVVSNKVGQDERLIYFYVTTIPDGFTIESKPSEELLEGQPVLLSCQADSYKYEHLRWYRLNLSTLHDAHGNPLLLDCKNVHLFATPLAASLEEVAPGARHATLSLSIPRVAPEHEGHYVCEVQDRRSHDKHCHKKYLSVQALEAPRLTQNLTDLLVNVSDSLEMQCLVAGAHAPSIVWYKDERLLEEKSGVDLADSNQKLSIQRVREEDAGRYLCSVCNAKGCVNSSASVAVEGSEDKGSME
Described as above. The protocol: as §2

Assay [7] addresses T6, human VEGF (coated in the selectivity ELISA) (human, UniProt P15692-4 27-191, limits assumed).
T6 construct: the sentence lists it last after 'rabbit Fc-fusion protein of'
Described as above. As to the method: as §2

Assay [8] addresses T1, recombinant human KDR. Briefly: competition ELISA: APX004 pre-incubated with 5 µg/ml recombinant human KDR, then on coated VEGF-A; bound KDR detected. The protocol:
as §1

T1 sequence (P35968 20-764 limits assumed): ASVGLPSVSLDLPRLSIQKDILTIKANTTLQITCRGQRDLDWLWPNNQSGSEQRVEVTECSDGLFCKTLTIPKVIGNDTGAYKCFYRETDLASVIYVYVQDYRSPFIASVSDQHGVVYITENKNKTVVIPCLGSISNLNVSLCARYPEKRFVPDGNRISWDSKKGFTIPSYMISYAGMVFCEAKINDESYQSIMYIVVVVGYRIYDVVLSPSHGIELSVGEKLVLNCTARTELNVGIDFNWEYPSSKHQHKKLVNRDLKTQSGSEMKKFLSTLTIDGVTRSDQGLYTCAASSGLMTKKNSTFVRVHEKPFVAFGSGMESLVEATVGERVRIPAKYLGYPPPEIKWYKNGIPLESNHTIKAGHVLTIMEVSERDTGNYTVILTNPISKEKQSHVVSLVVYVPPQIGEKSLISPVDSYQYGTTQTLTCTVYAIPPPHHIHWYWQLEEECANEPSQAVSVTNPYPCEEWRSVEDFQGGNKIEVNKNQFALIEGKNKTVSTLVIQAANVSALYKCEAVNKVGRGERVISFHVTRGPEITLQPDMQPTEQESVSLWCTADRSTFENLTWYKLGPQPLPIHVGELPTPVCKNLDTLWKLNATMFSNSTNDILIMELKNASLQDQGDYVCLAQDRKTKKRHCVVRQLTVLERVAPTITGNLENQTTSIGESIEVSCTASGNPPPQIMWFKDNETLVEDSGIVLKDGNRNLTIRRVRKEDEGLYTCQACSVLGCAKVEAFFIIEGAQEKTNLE
T6 sequence (P15692 other isoform, or with tags, fused parts or gaps limits assumed): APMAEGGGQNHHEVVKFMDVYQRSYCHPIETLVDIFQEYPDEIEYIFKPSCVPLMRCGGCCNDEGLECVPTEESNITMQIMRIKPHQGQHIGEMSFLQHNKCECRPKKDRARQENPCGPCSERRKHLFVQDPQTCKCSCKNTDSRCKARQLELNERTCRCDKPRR
T4 sequence (P17948 27-758 limits assumed): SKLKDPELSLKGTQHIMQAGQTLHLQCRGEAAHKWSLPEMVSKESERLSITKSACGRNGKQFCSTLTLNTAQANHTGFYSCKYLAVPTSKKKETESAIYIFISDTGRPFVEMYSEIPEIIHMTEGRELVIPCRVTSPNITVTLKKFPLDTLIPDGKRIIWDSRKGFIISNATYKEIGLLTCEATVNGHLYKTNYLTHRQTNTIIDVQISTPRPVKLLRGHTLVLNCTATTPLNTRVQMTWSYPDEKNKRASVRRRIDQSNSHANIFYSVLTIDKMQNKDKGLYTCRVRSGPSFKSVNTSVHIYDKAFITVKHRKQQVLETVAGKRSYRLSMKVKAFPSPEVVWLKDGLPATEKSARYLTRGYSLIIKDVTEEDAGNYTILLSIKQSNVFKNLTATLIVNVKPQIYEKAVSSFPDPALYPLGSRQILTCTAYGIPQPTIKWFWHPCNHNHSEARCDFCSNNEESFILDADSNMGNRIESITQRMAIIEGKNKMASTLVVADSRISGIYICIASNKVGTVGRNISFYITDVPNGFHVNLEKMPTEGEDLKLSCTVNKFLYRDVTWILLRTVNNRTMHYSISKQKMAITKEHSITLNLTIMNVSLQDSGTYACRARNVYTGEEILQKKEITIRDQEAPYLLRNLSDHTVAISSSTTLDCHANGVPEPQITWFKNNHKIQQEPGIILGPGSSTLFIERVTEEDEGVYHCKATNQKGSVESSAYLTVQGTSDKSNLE
T2 sequence (P35918 20-762 limits assumed): as the sequence (P35918 20-762 limits assumed) above

B1: rabbit anti-KDR antibody clone 15 (antibody, V domains shown)
VH: QSLEESGGDLVKPGTSLTLTCTASGFSFSARHFMYWVRQAPGKGLEWIGCIDIGSGSTYYTSWAKDRFTISKPSSTTVTLQMTSLTAADTATYFCARSSGYPYYFTLWGPGTLVTVSS
VL: AVVLTQTTSSVSADVGGTVTIKCQASENIYSLLAWYQQKPGQPPKLLIYSASDLASGVPSRFSGSGFGTEFTLTISDLECADAATYHCQSYYYSGSSADTGAFGGGTEVVVK
notes: rabbit monoclonal antibody, recombinantly expressed and purified for characterization
The IC50 is the concentration at which inhibition is half-maximal. B1: the 50% inhibitory concentration (IC50) with recombinant human KDR [1] is 17.5 nM.

B2: rabbit anti-KDR antibody clone 43 (antibody, V domains shown)
VH: QSVEESGGRLVTPGTPLTLTCTVSGFSLSSYAMSWFRQAPGKGLEWIGLIRSSGATYYASWAKGRFTISKASTTVDLKFTSPTTEDTATYFCARVLWPGDIAYAYHNIWGPGTLVTVSS
VL: DLVMTQTPSPVSAAVGGTVTINCQASEEIGGNLAWYQQKPGQPPKLLIYSASTLTSGVPSRFKGSGSGTEYTLTISDLECADAATYYCQYTYYGFSYVGPFGGGTEVVVK
notes: as for B1
In the case of B2, in the assay with recombinant human KDR [1], the concentration for half-maximal inhibition (IC50) was found to be 7.54 nM.

B3: rabbit anti-KDR antibody clone 83 (antibody, V domains shown)
VH: B2 VH with V3L, F26I, S27D, S30A, F36V, A71T, F79M, D100E
VL: B2 VL with L2V, S9A, P10S, A13E, A14P, T53S, G66E, T91S, S96N
notes: as for B1
On to B3, for which the IC50 with recombinant human KDR [1] was 9.77 nM.

B4: rabbit anti-KDR antibody clone 81 (antibody, V domains shown)
VH: B2 VH with S30T
VL: B2 VL with S76N, T91P
notes: as for B1
For the molecule B4, the IC50 in the assay with recombinant human KDR [1] is 4.56 nM.

B5: clone 36 rabbit anti-KDR antibody (antibody, V domains shown)
VH: QSVEESGGRLVTPGTPLTLTCTVSGIDLNNYAMSWVRQAPGKGLEWIGIIGSSGSIFYASWAKGRITISKTSTTVDLKFTSLTTEDTATYFCARVLWAGSVAYAYHNIWGPGTLVTVSS
VL: DPVMTQTPASVSEPVGGTVTINCQASEELGSNLAWYQQKPGQPPKLLIYSASTLASGVPSRFKGSGSGTEYTLTISDLECADAATYYCQYTYFGSSYLGAFGGGTEVVVK
notes: rabbit IgG, recombinantly expressed in 293-6E cells; also called R-36; parental rabbit monoclonal antibody 36
B5: the IC50 with recombinant human KDR [1] was found to be 6.25 nM; in the assay with recombinant human KDR [2], 3.1 nM.

B6: APX004 (humanized clone 36 anti-KDR antibody) (antibody, human IgG1, kappa, V domains shown)
VH: EVQLVESGGGLVQPGGSLRLSCAASGFDLSSYAMSWVRQAPGKGLEWVGIIGSGGSTYYASWAKGRFTISKDSSKNTVYLQMNSLRAEDTAVYFCARVLWAGSVAYAYHNIWGPGTLVTVSS
VL: DIQMTQSPSSLSASVGDRVTINCQASEELGSNLAWYQQKPGKPPKLLIYSASTLASGVPSRFSGSGSGTDYTLTISSLQPEDFATYYCQYTYFGSSYLGAFGGGTKVEIKR
notes: also called humanized 36
Broadly, the Kd is the equilibrium constant for the complex coming apart. On to B6, for which the Kd with recombinant human KDR [3] was determined as 0.053 nM. The binding result in the assay with mouse KDR is on record as “binds”; in assay [4] it was “binds”; in [5] it was “no binding (tested: 1 µg/ml)”; in assay [6], “no binding (tested: 1 µg/ml)”; in assay [7], “no binding (tested: 1 µg/ml)”. Besides, in the assay with recombinant human KDR [8], the IC50 came to 2.6 nM.

B7: rabbit anti-KDR antibody clone 92 (antibody, V domains shown)
VH: QSVEESGGRLVTPGTPLTLTCTVSGFSLSSNAMSWVRQAPGEGLEWIGTISSSGSTYYATWVKGRFTISKTSTTVDLKMTSLTAADTATYFCARGDDDVSDYFYYFPIWGPGTLVTVSS
VL: AVVLTQTASPVSGAVGGTVTIKCQASQNIYNNLAWYRQKPGQPPKLLIYAASKLASGVPSRFSGSRSGTQFTLSISDLECADAATYYCQSYYFDSSSTDAAFGGGTEVVVK
notes: as for B1
B7: the IC50 in the assay with recombinant human KDR [1] is 32.9 nM.

B8: rabbit anti-KDR antibody clone 23 (antibody, V domains shown)
VH: B7 VH
VL: B7 VL
notes: as for B1
Turning to B8, in the assay with recombinant human KDR [1], the concentration for half-maximal inhibition (IC50) was 21.4 nM.

B9: rabbit anti-KDR antibody clone 24 (antibody, V domains shown)
VH: B7 VH
VL: B7 VL
notes: as for B1
Consider B9, for which, in the assay with recombinant human KDR [1], the IC50 was determined as 19.8 nM.

B10: rabbit anti-KDR antibody clone 27 (antibody, V domains shown)
VH: QSVEESGGRLVTPGTPLTLTCTASGFALNDFAMSWVRQAPGKGLEWIGMIASSGNTFYASWAKGRFTISKTSTTVDLKFTSPTTEDTATYFCARVLWPGYIAYAYHNIWGPGTLVTVSS
VL: DPVLTQTPASVSAVVGGTVTINCQTSEDIASNLAWYQQKSGQRPKLLIYEASKLASGVPSRFKGSGSGTEYTLTISDLECADAATYYCQYTYYGSSYLGAFGGGTEVVVK
notes: as for B1
With B10, in the assay with recombinant human KDR [1], the IC50 worked out at 5.95 nM.
